Experimental findings from patent publication US7977317B2, “Compositions and methods for modulating blood-brain barrier transport” (Raptor Pharmaceutical Inc., priority 2001, dated 2011) are described below.

The test system of data set [1] is bovine brain capillary endothelial cell monolayers. As to the kind of experiment: Competition of [125I]-p97 binding on bovine brain capillary endothelial cell monolayers. The settings on record: [125I]-p97 25 nM, 2 h at 4° C., competitor 7.5 micromolar (FIG. 3). As for the experimental part:
FIG. 3. Binding of p97 on bovine brain capillary endothelial cell monolayers. Binding p97 was performed with BBCECs that were pre-incubated 2 hrs in Ringer-Hepes to avoid any interference from the astrocytes. For the binding experiments, cells were incubated for 2 h at 4° C. in Ringer/Hepes in the presence of [^125I]-p97 (25 nM) and 7.5 micromolar concentrations of cold-p97, transferrin or lactoferrin, respectively. At the end of the incubation, the filters were gently washed at 4° C. three times with 4 ml of cold-PBS. Then the associated radioactivity of endothelial cells was determined by removing the membrane of the culture insert and counting it in a gamma counter.
B. Binding studies of p97. Binding of p97 was performed with BBCECs and Rat Brain Endothelial Cells that were pre-incubated 2 hrs in Ringer/Hepes to avoid any interference from the astrocytes.
For the binding experiments, cells were incubated for 2 h at 4° C. in Ringer/Hepes in the presence of [^125I]-p97 (25 nM) and increasing concentrations of cold-p97 or high (7.5 micromolar) concentrations of transferrin or lactoferrin. At the end of the incubation, the filters were gently washed at 4° C. three times with 4 ml of cold-PBS. Then the associated radioactivity of endothelial cells was determined by removing the membrane of the culture insert and counting it in a gamma counter.

For a further data set, the system named is BBCECs. The data set is described as follows: Binding of [125I]-p97 to BBCECs with saponin treatment (Scatchard). Further details: species or system bovine. To be noted: 200-fold molar excess, after saponin treatment (FIG. 12b). The procedure: FIG. 12 illustrates the Binding of p97 to BBCE cells. FIG. 12a, p97 binding experiments were performed with BBCECs that were either pre-incubated in Ringer-Hepes solution or pre-treated with saponin. BBCECs were then incubated for 2 hrs at 4° C. with [^125I]-p97 (25 nM). At the end of the incubation, the filters were gently washed with cold PBS and then the radioactivity associated with the ECs was quantified; FIG. 12b, The binding of [^125I]-p97 was also performed with increasing concentrations of unlabelled p97 following saponin treatment. The results were expressed as the percentage of the [^125I]-p97 binding measured in the absence of unlabelled p97; FIG. 12c, The results were also transformed with a Scatchard plot and expressed as the ratio of bound p97/free p97 as a function of the bound p97 (n=5).
Transcytosis and binding experiments. […] At the end of the experiment, [^125I]-p97 was quantitated in 500 μl of the lower chamber of each well by TCA precipitation. We also measured p97 in 50 μl of the lower chamber of each well by SDS-PAGE according to the method of Laemmli (Laemmli, U.K. Nature; 227: 680-685 (1970)). Proteins were separated on 7.5% acrylamide gels, stained with Coomassie Blue, dried and analysed by densitometry. […] After 2 hrs at 4° C., ECs were gently washed, and the [^125I]-p97 attached to the ECs was quantified in a liquid scintillation counter. […]

The subject of the next data set is mAb L235. The data set is described as follows: BIAcore analysis of native and boiled p97 on immobilized mAb L235. Type of data set: physicochemical. To be noted: in Ringer/Hepes solution, boiled 5 to 30 min (FIG. 13b). The procedure: FIG. 13 illustrates the transcytosis and accumulation of p97 and transferrin in BBCEC monolayers. FIG. 13a, Transcytosis experiments were performed at 37° C. (solid bars) or 4° C. (white bars). [^125I]-p97 or bovine [^125I]-holo-transferrin (1 mg/ml) was added to the upper side of the cell-covered filter. At the end of the experiment, radiolabelled proteins were measured in the lower chamber of each well by TCA precipitation (n=4). Controls were also performed at 37° C. with denatured [^125I]-p97 or bovine [^125I]-holo-transferrin boiled for 30 min (grey bars) (n=2); FIG. 13b, Biospecific interaction analysis was performed with native or boiled p97 for the indicated times. MAb L235 (5 μg) was immobilized on a sensor chip (SM5) using standard procedures incorporating NHS, EDC and ethanolamine. Native and boiled p97 (5 to 30 min) diluted at 1 mg/ml in Ringer/Hepes was cooled and injected into the BIAcore. The surface plasmon resonance response obtained for native p97 and boiled p97 was plotted (in relative units (RU)) as a function of time; FIG. 13c, The accumulation of both proteins into BBEC cells were also measured. Briefly, after incubation at 37° C. (solid bars) or 4° C. […] Accumulation of both denatured proteins (grey bars) was also measured at 37° C. Filters were then removed, and the radioactivity associated with the cells was quantified (n=3). […]
Background: Surface plasmon resonance follows binding to a sensor surface in real time, without labels.

B1: lactoferrin: lactoferrin (Lf), LRP ligand used as competitor (protein, UniProt P02788 20-710, looked up)
Lactotransferrin: GRRRSVQWCAVSQPEATKCFQWQRNMRKVRGPPVSCIKRDSPIQCIQAIAENRADAVTLDGGFIYEAGLAPYKLRPVAAEVYGTERQPRTHYYAVAVVKKGGSFQLNELQGLKSCHTGLRRTAGWNVPIGTLRPFLNWTGPPEPIEAAVARFFSASCVPGADKGQFPNLCRLCAGTGENKCAFSSQEPYFSYSGAFKCLRDGAGDVAFIRESTVFEDLSDEAERDEYELLCPDNTRKPVDKFKDCHLARVPSHAVVARSVNGKEDAIWNLLRQAQEKFGKDKSPKFQLFGSPSGQKDLLFKDSAIGFSRVPPRIDSGLYLGSGYFTAIQNLRKSEEEVAARRARVVWCAVGEQELRKCNQWSGLSEGSVTCSSASTTEDCIALVLKGEADAMSLDGGYVYTAGKCGLVPVLAENYKSQQSSDPDPNCVDRPVEGYLAVAVVRRSDTSLTWNSVKGKKSCHTAVDRTAGWNIPMGLLFNQTGSCKFDEYFSQSCAPGSDPRSNLCALCIGDEQGENKCVPNSNERYYGYTGAFRCLAENAGDVAFVKDVTVLQNTDGNNNEAWAKDLKLADFALLCLDGKRKPVTEARSCHLAMAPNHAVVSRMDKVERLKQVLLHQQAKFGRNGSDCPDKFCLFQSETKNLLFNDNTECLARLHGKTTYEKYLGPQYVAGITNLKKCSTSPLLEACEFLRK
In the case of B1, the “Inhibition of [125I]-p97 binding to BBCECs” value in data set [1] is on record as “competitively inhibited”.

B2: p97: recombinant human melanotransferrin (p97), provided by Synapse Technologies (protein, UniProt P08582 20-709, looked up)
Melanotransferrin: GMEVRWCATSDPEQHKCGNMSEAFREAGIQPSLLCVRGTSADHCVQLIAAQEADAITLDGGAIYEAGKEHGLKPVVGEVYDQEVGTSYYAVAVVRRSSHVTIDTLKGVKSCHTGINRTVGWNVPVGYLVESGRLSVMGCDVLKAVSDYFGGSCVPGAGETSYSESLCRLCRGDSSGEGVCDKSPLERYYDYSGAFRCLAEGAGDVAFVKHSTVLENTDGKTLPSWGQALLSQDFELLCRDGSRADVTEWRQCHLARVPAHAVVVRADTDGGLIFRLLNEGQRLFSHEGSSFQMFSSEAYGQKDLLFKDSTSELVPIATQTYEAWLGHEYLHAMKGLLCDPNRLPPYLRWCVLSTPEIQKCGDMAVAFRRQRLKPEIQCVSAKSPQHCMERIQAEQVDAVTLSGEDIYTAGKTYGLVPAAGEHYAPEDSSNSYYVVAVVRRDSSHAFTLDELRGKRSCHAGFGSPAGWDVPVGALIQRGFIRPKDCDVLTAVSEFFNASCVPVNNPKNYPSSLCALCVGDEQGRNKCVGNSQERYYGYRGAFRCLVENAGDVAFVRHTTVFDNTNGHNSEPWAAELRSEDYELLCPNGARAEVSQFAACNLAQIPPHAVMVRPDTNIFTVYGLLDKAQDLFGDDHNKNGFKMFDSSNYHGQDLLFKDATVRAVPVGEKTTYRGWLGLDYVAALEGMSSQQC
With B2, the “Inhibition of [125I]-p97 binding to BBCECs” value in data set [1] is recorded as “competitively inhibited”. Further, the “Inhibition of radiolabel ([125I]-p97) binding by unlabelled p97” value in the data set on BBCECs was “approximately 50%”. In addition, the “Resistance to heat denaturation” value in the data set on mAb L235 is on record as “resistant to heat denaturation”.
